From article PMC3024946, “Hydroxyproline-containing collagen analogs trigger the release and activation of collagen-sequestered proMMP-2 by competition with prodomain-derived peptide P33-42” (Fibrogenesis & Tissue Repair, 2011)

Legend:
Set-up in all cases: species or system human
ProMMP-2 = assay: Solid-phase binding of [125I]-proMMP-2 to immobilized collagens/peptides (microwells); conditions: ProMMP-2, 2 ng/well; coated wells; 4°C, 2 h; residual radioactivity; mean ± SD, at least five experiments in triplicate
Procedure: (§1) Human recombinant proMMPs and in vitro activated MMPs were obtained from Invitek and were labeled with the [^125I]-Bolton-Hunter reagent according to the manufacturer's instructions (PerkinElmer, Rodgau, Germany) before the buffer was exchanged for phosphate-buffered saline (PBS) with 0.05% (vol/vol) Tween 20 by gel filtration as described previously. Specific radioactivity for [^125I]-MMPs was 3-9 × 10^4 cpm/ng. Precipitation with 10% (wt/vol) trichloroacetic acid and 200 μg of BSA recovered 96% to 100% of protein-bound radioactivity. Aliquots of labeled MMPs were frozen and stored at -80°C. […]
(§2) The following collagen analogs and control peptides were synthesized as described previously: (GPO)10, H-Gly-Cys-Hyp-(Gly-Pro-Hyp)10-Gly-Cys-Hyp-Gly-NH2; (GPP)10, H-Gly-Cys-Pro-(Gly-Pro-Pro)10-Gly-Cys-Pro-Gly-NH2; and GAP, H-Gly-Ala-Cys-(Gly-Ala-Pro)5-Gly-Phe-Hyp-Gly-Glu-Arg-(Gly-Ala-Pro)5-NH2. […] Graphs were calculated from the primary data using a custom fitting program written by D.A. Slatter (Department of Biochemistry, University of Cambridge, Cambridge, UK [48]) to model different possible transitions. […]
(§3) ProMMP-2 and proMMP-9 or actMMP-2 and actMMP-9 were bound to nitrocellulose and polystyrene-immobilized native collagens, CI chains, CB peptides or structural analogs. […] Membranes were washed again and air-dried, and bound MMP was monitored by autoradiography. […]

ActMMP-2 = assay: Solid-phase binding of [125I]-actMMP-2 to immobilized collagens/peptides (microwells); conditions: ActMMP-2, 2 ng/well; coated wells; 4°C, 2 h; residual radioactivity; mean ± SD, at least five experiments in triplicate
Procedure: as §1, §2, §3

ProMMP-9 = assay: Solid-phase binding of [125I]-proMMP-9 to immobilized collagens/peptides (microwells); conditions: ProMMP-9, 2 ng/well; coated wells; 4°C, 2 h; residual radioactivity; mean ± SD, at least five experiments in triplicate
Procedure: as §1, §2, §3

ActMMP-9 = assay: Solid-phase binding of [125I]-actMMP-9 to immobilized collagens/peptides (microwells); conditions: ActMMP-9, 2 ng/well; coated wells; 4°C, 2 h; residual radioactivity; mean ± SD, at least five experiments in triplicate
Procedure: as §1, §2, §3

B1: CIII: native human collagen type III (protein)
chain: QQEAVEGGCSHLGQSYADRDVWKPEPCQICVCDSGSVLCDDIICDDQELDCPNPEIPFGECCAVCPQPPTAPTRPPNGQGPQGPKGDPGPPGIPGRNGDPGIPGQPGSPGSPGPPGICESCPTGPQNYSPQYDSYDVKSGVAVGGLAGYPGPAGPPGPPGPPGTSGHPGSPGSPGYQGPPGEPGQAGPSGPPGPPGAIGPSGPAGKDGESGRPGRPGERGLPGPPGIKGPAGIPGFPGMKGHRGFDGRNGEKGETGAPGLKGENGLPGENGAPGPMGPRGAPGERGRPGLPGAAGARGNDGARGSDGQPGPPGPPGTAGFPGSPGAKGEVGPAGSPGSNGAPGQRGEPGPQGHAGAQGPPGPPGINGSPGGKGEMGPAGIPGAPGLMGARGPPGPAGANGAPGLRGGAGEPGKNGAKGEPGPRGERGEAGIPGVPGAKGEDGKDGSPGEPGANGLPGAAGERGAPGFRGPAGPNGIPGEKGPAGERGAPGPAGPRGAAGEPGRDGVPGGPGMRGMPGSPGGPGSDGKPGPPGSQGESGRPGPPGPSGPRGQPGVMGFPGPKGNDGAPGKNGERGGPGGPGPQGPPGKNGETGPQGPPGPTGPGGDKGDTGPPGPQGLQGLPGTGGPPGENGKPGEPGPKGDAGAPGAPGGKGDAGAPGERGPPGLAGAPGLRGGAGPPGPEGGKGAAGPPGPPGAAGTPGLQGMPGERGGLGSPGPKGDKGEPGGPGADGVPGKDGPRGPTGPIGPPGPAGQPGDKGEGGAPGLPGIAGPRGSPGERGETGPPGPAGFPGAPGQNGEPGGKGERGAPGEKGEGGPPGVAGPPGGSGPAGPPGPQGVKGERGSPGGPGAAGFPGARGLPGPPGSNGNPGPPGPSGSPGKDGPPGPAGNTGAPGSPGVSGPKGDAGQPGEKGSPGAQGPPGAPGPLGIAGITGARGLAGPPGMPGPRGSPGPQGVKGESGKPGANGLSGERGPPGPQGLPGLAGTAGEPGRDGNPGSDGLPGRDGSPGGKGDRGENGSPGAPGAPGHPGPPGPVGPAGKSGDRGESGPAGPAGAPGPAGSRGAPGPQGPRGDKGETGERGAAGIKGHRGFPGNPGAPGSPGPAGQQGAIGSPGPAGPRGPVGPSGPPGKDGTSGHPGPIGPPGPRGNRGERGSEGSPGHPGQPGPPGPPGAPGPCCGGVGAAAIAGIGGEKAGGFAPYYG
Binding of [125I]-MMPs (ProMMP-2): 40.0 ± 5.0 % of maximum control | Binding of [125I]-MMPs (ActMMP-2): 14.3 ± 5.8 % of maximum control | Binding of [125I]-MMPs (ProMMP-9): 45.0 ± 2.0 % of maximum control | Binding of [125I]-MMPs (ActMMP-9): 5.0 ± 0.4 % of maximum control
